Measured values as given in article doi:10.1101/2020.04.20.049213 (bioRxiv, 2020).

Target: T1, JARID2 (aa 1-450) (human, UniProt Q92833 1-450, K116me3 (trimethyl-lysine at 116))
T1 sequence: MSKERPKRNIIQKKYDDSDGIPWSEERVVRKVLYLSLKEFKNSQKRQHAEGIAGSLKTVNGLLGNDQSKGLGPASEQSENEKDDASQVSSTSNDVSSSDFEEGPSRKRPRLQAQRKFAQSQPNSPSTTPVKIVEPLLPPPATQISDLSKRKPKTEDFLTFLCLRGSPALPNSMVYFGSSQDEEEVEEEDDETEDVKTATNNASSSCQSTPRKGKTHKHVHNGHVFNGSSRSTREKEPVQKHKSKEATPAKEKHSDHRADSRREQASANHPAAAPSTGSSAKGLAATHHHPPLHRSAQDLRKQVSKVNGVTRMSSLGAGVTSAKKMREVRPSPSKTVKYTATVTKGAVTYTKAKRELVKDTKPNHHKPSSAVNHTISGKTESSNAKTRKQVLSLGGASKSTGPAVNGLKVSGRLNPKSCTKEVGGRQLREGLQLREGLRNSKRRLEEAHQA
Test: cryo-EM structure

binding result: binds
B1: EED (aa 80-441) (domain or fragment)
chain: not shown
